These results are taken from patent publication US20250262210A1 (TRUSTEES OF COLUMBIA UNIVERSITY IN THE CITY OF NEW YORK, published 2025).

In assay [1] the target is T1, USP47 (human, UniProt Q96K76 1-1375, limits assumed).
T1 sequence (looked up): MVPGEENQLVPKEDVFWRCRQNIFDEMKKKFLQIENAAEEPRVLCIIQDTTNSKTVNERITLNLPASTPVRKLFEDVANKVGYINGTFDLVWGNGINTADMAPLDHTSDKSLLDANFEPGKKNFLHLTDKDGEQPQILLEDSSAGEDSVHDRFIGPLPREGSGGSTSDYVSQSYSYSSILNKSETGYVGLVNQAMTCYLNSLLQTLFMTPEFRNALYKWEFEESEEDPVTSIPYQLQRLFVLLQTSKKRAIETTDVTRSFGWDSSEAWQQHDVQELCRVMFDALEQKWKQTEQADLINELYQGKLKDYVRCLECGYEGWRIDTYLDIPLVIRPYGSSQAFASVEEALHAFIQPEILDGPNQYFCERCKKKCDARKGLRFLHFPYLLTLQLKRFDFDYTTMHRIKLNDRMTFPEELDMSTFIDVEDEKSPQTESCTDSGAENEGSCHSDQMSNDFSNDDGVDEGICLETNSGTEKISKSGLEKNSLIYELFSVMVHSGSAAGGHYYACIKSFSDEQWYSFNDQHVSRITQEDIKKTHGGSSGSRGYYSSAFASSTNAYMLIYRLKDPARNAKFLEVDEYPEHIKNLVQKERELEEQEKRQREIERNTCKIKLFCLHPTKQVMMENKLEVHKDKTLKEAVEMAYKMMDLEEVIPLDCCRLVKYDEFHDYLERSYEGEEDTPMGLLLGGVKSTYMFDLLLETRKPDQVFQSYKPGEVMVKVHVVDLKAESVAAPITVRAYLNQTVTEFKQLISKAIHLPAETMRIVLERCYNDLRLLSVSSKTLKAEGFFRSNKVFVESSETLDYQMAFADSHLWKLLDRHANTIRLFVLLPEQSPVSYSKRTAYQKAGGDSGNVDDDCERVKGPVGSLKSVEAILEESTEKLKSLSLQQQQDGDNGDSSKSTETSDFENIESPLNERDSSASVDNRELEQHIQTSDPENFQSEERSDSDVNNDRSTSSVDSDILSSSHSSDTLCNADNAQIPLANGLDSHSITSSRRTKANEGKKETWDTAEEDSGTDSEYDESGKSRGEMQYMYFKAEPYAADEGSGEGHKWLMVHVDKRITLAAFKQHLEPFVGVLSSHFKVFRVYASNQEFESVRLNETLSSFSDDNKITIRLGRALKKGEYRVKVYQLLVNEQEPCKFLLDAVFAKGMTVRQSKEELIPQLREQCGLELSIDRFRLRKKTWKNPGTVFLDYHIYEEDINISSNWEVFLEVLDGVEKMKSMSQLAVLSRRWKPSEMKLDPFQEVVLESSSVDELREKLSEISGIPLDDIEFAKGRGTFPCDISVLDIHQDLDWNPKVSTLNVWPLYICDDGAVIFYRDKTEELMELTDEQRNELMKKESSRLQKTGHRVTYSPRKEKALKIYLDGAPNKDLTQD
The assay is described as follows: IP/MS, LZTR1 R810W-FLAG, U87. Summed up:
(§1)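 Gel slices were reduced with 5 mM DTT, alkylated with 11 mM IAA and digested overnight at 37° C. with trypsin. Peptides were analysed on an Orbitrap Fusion Tribrid by LC-MS/MS.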

In assay [2] the target is ARHGEF40 (human, UniProt Q8TER5 1-1519, limits assumed). The assay is described as follows: IP/MS, LZTR1 R810W-FLAG, U87. Summed up:
as §1

Chain of ARHGEF40 (Q8TER5 whole entry): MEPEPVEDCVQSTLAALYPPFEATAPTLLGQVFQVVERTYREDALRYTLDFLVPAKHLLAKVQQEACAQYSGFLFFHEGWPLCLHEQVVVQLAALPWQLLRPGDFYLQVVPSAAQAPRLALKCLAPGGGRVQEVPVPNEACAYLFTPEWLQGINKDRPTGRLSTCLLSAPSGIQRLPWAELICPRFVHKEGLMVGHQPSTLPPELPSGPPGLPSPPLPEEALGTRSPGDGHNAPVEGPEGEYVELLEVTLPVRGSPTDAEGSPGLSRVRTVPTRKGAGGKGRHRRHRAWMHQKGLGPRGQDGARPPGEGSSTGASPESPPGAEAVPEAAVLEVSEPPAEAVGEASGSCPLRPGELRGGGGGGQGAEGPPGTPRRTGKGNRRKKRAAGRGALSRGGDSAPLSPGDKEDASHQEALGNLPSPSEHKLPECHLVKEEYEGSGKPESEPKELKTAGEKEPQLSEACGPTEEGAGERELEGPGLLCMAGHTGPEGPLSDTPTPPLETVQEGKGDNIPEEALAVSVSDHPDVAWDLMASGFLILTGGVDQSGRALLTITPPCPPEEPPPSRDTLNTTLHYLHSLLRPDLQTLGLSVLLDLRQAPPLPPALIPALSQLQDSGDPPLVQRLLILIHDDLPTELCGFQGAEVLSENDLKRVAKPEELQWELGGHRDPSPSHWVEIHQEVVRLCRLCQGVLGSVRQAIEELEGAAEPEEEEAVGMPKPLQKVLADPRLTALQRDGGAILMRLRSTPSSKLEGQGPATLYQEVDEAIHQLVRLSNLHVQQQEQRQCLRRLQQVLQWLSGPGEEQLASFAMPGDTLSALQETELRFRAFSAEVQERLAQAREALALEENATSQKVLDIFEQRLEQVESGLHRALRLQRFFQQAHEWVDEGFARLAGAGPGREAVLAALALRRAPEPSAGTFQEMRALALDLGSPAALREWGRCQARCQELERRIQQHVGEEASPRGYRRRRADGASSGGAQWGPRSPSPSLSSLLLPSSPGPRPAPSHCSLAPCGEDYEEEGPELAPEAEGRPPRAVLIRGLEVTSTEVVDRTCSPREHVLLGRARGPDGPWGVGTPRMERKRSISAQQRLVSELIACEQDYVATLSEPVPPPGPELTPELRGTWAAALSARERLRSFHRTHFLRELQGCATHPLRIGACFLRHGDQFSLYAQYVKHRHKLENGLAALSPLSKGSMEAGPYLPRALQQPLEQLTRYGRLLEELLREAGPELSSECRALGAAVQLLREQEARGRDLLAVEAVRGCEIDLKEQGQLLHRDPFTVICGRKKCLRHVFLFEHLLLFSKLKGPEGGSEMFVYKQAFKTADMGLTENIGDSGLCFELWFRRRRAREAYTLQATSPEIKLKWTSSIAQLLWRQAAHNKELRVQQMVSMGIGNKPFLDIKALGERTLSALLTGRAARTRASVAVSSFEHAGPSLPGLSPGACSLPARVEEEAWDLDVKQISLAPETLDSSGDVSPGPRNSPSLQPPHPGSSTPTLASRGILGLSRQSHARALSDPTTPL

B1: LZTR1 R810W-FLAG (other, human, UniProt Q8N653 1-840, looked up)
chain: MAGPGSTGGQIGAAALAGGARSKVAPSVDFDHSCSDSVEYLTLNFGPFETVHRWRRLPPCDEFVGARRSKHTVVAYKDAIYVFGGDNGKTMLNDLLRFDVKDCSWCRAFTTGTPPAPRYHHSAVVYGSSMFVFGGYTGDIYSNSNLKNKNDLFEYKFATGQWTEWKIEGRLPVARSAHGATVYSDKLWIFAGYDGNARLNDMWTIGLQDRELTCWEEVAQSGEIPPSCCNFPVAVCRDKMFVFSGQSGAKITNNLFQFEFKDKTWTRIPTEHLLRGSPPPPQRRYGHTMVAFDRHLYVFGGAADNTLPNELHCYDVDFQTWEVVQPSSDSEVGGAEVPERACASEEVPTLTYEERVGFKKSRDVFGLDFGTTSAKQPTQPASELPSGRLFHAAAVISDAMYIFGGTVDNNIRSGEMYRFQFSCYPKCTLHEDYGRLWESRQFCDVEFVLGEKEECVQGHVAIVTARSRWLRRKITQARERLAQKLEQEAAPVPREAPGVAAGGARPPLLHVAIREAEARPFEVLMQFLYTDKIKYPRKGHVEDVLLIMDVYKLALSFQLCRLEQLCRQYIEASVDLQNVLVVCESAARLQLSQLKEHCLNFVVKESHFNQVIMMKEFERLSSPLIVEIVRRKQQPPPRTPLDQPVDIGTSLIQDMKAYLEGAGAEFCDITLLLDGHPRPAHKAILAARSSYFEAMFRSFMPEDGQVNISIGEMVPSRQAFESMLRYIYYGEVNMPPEDSLYLFAAPYYYGFYNNRLQAYCKQNLEMNVTVQNVLQILEAADKTQALDMKRHCLHIIVHQFTKVSKLPTLWSLSQQLLLDIIDSLASHISDKQCAELGADI
notes: Stably expressed in U87 cells by lentivirus; also called LZTR1-FLAG-R810W; LZTR1 RW; not shown: FLAG tag
In the case of B1, the binding result in assay [1] and in assay [2] was “binds” throughout.
